B1: CPEB3 Ribozyme (parent)
chain: UAACAGGGGGCCACAGCAGAAGCGUUCACGUCGCAGCCCCUGUCAGAUUCUGGUGAAUCUGCGAAUUCUGCUGUAUAUCUC

In this series the parent is B1. Nature of the series: self-cleavage, relative activity (ratio to wild type); higher = more cleavage; in vitro, sequencing. The essentials: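 Relative activity compares each variant's cleaved/total read fraction with that of the unmutated ribozyme. To get these fractions, barcoded CPEB3 ribozyme libraries from rounds of error-prone PCR were transcribed with T7 RNA polymerase for 5 hours at 37°C and then given 15 min of DNase I treatment before EDTA was added. The RNAs were reverse transcribed with template switching and sequenced on Illumina, and DNA sequencing linked barcodes to variants. A minimum of 5 reads applied, and three batches were averaged.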
As for UAACAGGGGGCCACAGCAGAAGCGUUUACGUCGCAGCCCCUGUCAGAUUCAGGUGAAUCUGCGAAUUCUGCUGUAUAUCUC [C27U U51A], the self-cleavage was 0.17.

As for UAACAAGGGGCCACAGCAGAAGCGUUCACGUCGCAGCCCCUGUCAGAUUCUGGUGAACCUGCGAAUUCUGCUGUAUAUCUC [G6A U58C], the self-cleavage was 0.14.

On to UUUCAGGGGGCCACAGCAGAAGCGUUCACGUCGCAGCCCCUGUCAGAUUCUGGUGAAUCUGCGAAUUCUGCUGUAUAUCUC [A2U A3U], for which the self-cleavage was determined as 1.04.

On to UAACAGGGGGCCACAGCAGAAGCGUUCACGUCACAGCCCCUGUCAGAUUCUGGUGAAUCCGCGAAUUCUGCUGUAUAUCUC [G33A U60C], for which the self-cleavage is 0.24.

In the case of UAACAGGGGACCACAGCAGAAGCGUUCACGUCGCAGCCACUGUCAGAUUCUGGUGAAUCUGCGAAUUCUGCUGUAUAUCUC [G10A C39A], the self-cleavage was 0.37.

Turning to UAACAGGGGGCCACAGCAGAAGCGAUCACGACGCAGCCCCUGUCAGAUUCUGGUGAAUCUGCGAAUUCUGCUGUAUAUCUC [U25A U31A], the self-cleavage stood at 0.16.

For the variant UAACAGGGGGCCACAGCAGAAGCGUUCACGUCGCUGCCCCUGUCAGAUACUGGUGAAUCUGCGAAUUCUGCUGUAUAUCUC [A35U U49A], the self-cleavage was 0.39.

In the case of UGACAGGGGGCCACAGCAGAAGCGCUCACGUCGCAGCCCCUGUCAGAUUCUGGUGAAUCUGCGAAUUCUGCUGUAUAUCUC [A2G U25C], the self-cleavage was 0.49.

Consider UAACAGGGGGCCACAGCAGAAGCGUUCACGGCGCAGCCCCUGUCAGAUUCUGAUGAAUCUGCGAAUUCUGCUGUAUAUCUC [U31G G53A], for which the self-cleavage is 0.18.

Take UAACAGGGGGCCACAGCAGAAGCGUUCACGUCGCAGCCCCUGUCAGAUUCUGGUGAAGCUGCGAAUUCUGCUGUAUAUCCC [U58G U80C]: the self-cleavage amounted to 0.27.

For UAACAGGGGGCCACAGCUGAAGCGUUCACGUCGCCGCCCCUGUCAGAUUCUGGUGAAUCUGCGAAUUCUGCUGUAUAUCUC [A18U A35C], the self-cleavage worked out at 0.34.

For the variant UAACAGGGGGCCACAGCAGCAGCGUUCACGUCGCAGCCCCUGACAGAUUCUGGUGAAUCUGCGAAUUCUGCUGUAUAUCUC [A20C U43A], the self-cleavage came out at 0.35.

In the case of UAACAGGGGGCCACAGCAGAAGCGUUCACGUCACAGCCCCUGUCAGAUUCUAGUGAAUCUGCGAAUUCUGCUGUAUAUCUC [G33A G52A], the self-cleavage is 0.3.

Turning to UAACAGGGGGCCACAGCAGAAGCGUUCACGUCGCAGCCCCUGUCAGAUUCUGGUGAAACUGCGAAUUCUGCUGUAUAUCCC [U58A U80C], the self-cleavage worked out at 0.46.

UAACAGGGGGCCACAGCAGAAGCGUUCACGUCGCAGCCCCUGUCAGAUUCUGGUGAAUCUGCGAACUCUGCUCUAUAUCUC [U66C G73C]: the self-cleavage worked out at 0.58.

In the case of UAUCAGGGGGCCACAGCAGAAGCGUUCACGUCGCAGCCCCUGUCAGAUUCUGGUGGAUCUGCGAAUUCUGCUGUAUAUCUC [A3U A56G], the self-cleavage turned out to be 0.63.

On to UAACAGGGGGCCACAACAGAAGCGUUCACGUCUCAGCCCCUGUCAGAUUCUGGUGAAUCUGCGAAUUCUGCUGUAUAUCUC [G16A G33U], for which the self-cleavage stood at 0.18.

Consider UAACAGGGGGCCACAGCAGAAGCGUUCACGUCGCAGCCCCUGUCAGACUCUGGUGAAUCUGCGAAUUCUGCUGUAUAUAUC [U48C C79A], for which the self-cleavage worked out at 0.89.

As to UUACAGGGGGCCACAGCAGAAGCGUUCACGUCGCAGCCCGUGUCAGAUUCUGGUGAAUCUGCGAAUUCUGCUGUAUAUCUC [A2U C40G], the self-cleavage was 0.31.

As for UAACAGGGGGCCACAGCAGAAGCGUUCACGUCGCAGCCCCUGUCAGAUUCUGGUGAAUCUGCGAAUUCUGCUAUACAUCUC [G73A U76C], the self-cleavage came to 1.26.

Regarding UAACAGGGGGCAACAGCAGAAGCGUUCACGUCGCAGCCCCUGUCAGAUUCUGGUGAAUCUGCGAAUUCUGCUGUAUACCUC [C12A U78C], the self-cleavage came to 1.04.

As for UAACAGGGGGCCACAGCAGAAGCGUUCUCGUCGCAGCCCCUGUCAGAUUCUGGUGAAUCUGCGCAUUCUGCUGUAUAUCUC [A28U A64C], the self-cleavage is 0.34.

As to UAACAGGGGGCCACAGCAGAAGCGUUCUCGUCGCAGCCCCUGUCAGAUUCCGGUGAAUCUGCGAAUUCUGCUGUAUAUCUC [A28U U51C], the self-cleavage was determined as 0.73.

For the variant UAACAGGGGGCCACAGCGGAAGCGUUCACGUCGCAGCCCCUGUCAGAUUCUGGUGAAUCUGCGAAUUCUGCUGUCUAUCUC [A18G A75C], the self-cleavage was 0.91.

UAAUAGGGGGCCACAGCAGUAGCGUUCACGUCGCAGCCCCUGUCAGAUUCUGGUGAAUCUGCGAAUUCUGCUGUAUAUCUC [C4U A20U]: the self-cleavage stood at 0.42.

UAACAGGGGGCCACAGCAGAAGCGUUCACGUCGCAGCCCCUGUCAGAAUCUGGUGAAUCUGCGAAUUCUGCUGUGUAUCUC [U48A A75G]: the self-cleavage worked out at 0.32.

Consider UAACAGUGGGCCACAGCAGAAGCGUUCACGACGCAGCCCCUGUCAGAUUCUGGUGAAUCUGCGAAUUCUGCUGUAUAUCUC [G7U U31A], for which the self-cleavage stood at 0.07.

Consider UAACAGGGGGCCACAGCAGAAGCGUUCACGUCGCAGCCCCCGUCAGAUUUUGGUGAAUCUGCGAAUUCUGCUGUAUAUCUC [U41C C50U], for which the self-cleavage came to 1.08.

With UAACAGGGGGCCACAGCAGAAGCGUUCCCGUCGCAGCCCCUGUCAGAUUCUGGUGAAUCUGCGGAUUCUGCUGUAUAUCUC [A28C A64G], the self-cleavage was 0.52.

As for UAACAGGGGGCCACAGCAGAAGCGUUCACGACGCAGCCCCUGUCAGAUUCUGGUGAAUCUGCGAAUUCUGCUGUAUAACUC [U31A U78A], the self-cleavage came out at 0.41.

Consider UAACAGGGGGCCACAGCAGAAGCGUUCACGUCGCAGCCCCUGUCAGAUUCUGGUGAAUCUGCGAAUUAUGCUGGAUAUCUC [C68A U74G], for which the self-cleavage was found to be 0.68.

Take UAACAGGGGGCCACUGCAGAAGCGUUCACGUCGCAGCCCCUGUCAGAUUCUGGUGAAUCUGCGAUUUCUGCUGUAUAUCUC [A15U A65U]: the self-cleavage was found to be 0.37.

For the variant UAACAGGGGGCCACAGCAGAAGCGUUCACGCCGCAGCCCCUGUCAGUUUCUGGUGAAUCUGCGAAUUCUGCUGUAUAUCUC [U31C A47U], the self-cleavage came to 0.4.

Turning to UAUCAGGGGGCCACAGCAUAAGCGUUCACGUCGCAGCCCCUGUCAGAUUCUGGUGAAUCUGCGAAUUCUGCUGUAUAUCUC [A3U G19U], the self-cleavage worked out at 0.4.

(Values after the RNAGym collection of RNA variant scans (doi:10.1093/nar/gkz1192).)
